Experimental data published in patent US9688764B2, “Methods of treating breast cancer by administering anti-human prolactin receptor (PRLR) antibodies” (REGENERON PHARMACEUTICALS, INC., priority 2013, dated 2017).

T1: T47D (native PRLR expressing cell line) (Homo sapiens, UniProt P16471)
T1 construct: a native PRLR expressing cell line (T47D); endogenous in cells; host or cells: T47D
T1 sequence (P16471 25-622): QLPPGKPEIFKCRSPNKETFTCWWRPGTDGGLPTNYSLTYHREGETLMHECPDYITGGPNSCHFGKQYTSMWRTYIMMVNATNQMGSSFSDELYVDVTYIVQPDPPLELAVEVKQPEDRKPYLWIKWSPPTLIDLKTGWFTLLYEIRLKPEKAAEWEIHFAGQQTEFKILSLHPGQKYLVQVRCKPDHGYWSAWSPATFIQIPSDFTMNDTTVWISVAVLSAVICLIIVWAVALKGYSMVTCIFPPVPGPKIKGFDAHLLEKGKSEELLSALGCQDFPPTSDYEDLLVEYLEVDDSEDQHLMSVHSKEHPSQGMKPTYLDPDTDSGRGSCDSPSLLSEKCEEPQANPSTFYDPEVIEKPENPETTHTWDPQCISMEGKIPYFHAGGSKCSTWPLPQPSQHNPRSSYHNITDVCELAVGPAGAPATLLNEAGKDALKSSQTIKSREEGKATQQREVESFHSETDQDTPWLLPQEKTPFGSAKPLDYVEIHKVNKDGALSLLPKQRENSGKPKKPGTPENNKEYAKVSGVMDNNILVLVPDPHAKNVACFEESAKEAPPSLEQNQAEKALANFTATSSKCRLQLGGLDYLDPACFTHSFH

T2: HEK293/hPRLR (Homo sapiens, UniProt P16471)
T2 construct: HA; expressed in transfected cells; host or cells: HEK293
T2 sequence (P16471 25-622): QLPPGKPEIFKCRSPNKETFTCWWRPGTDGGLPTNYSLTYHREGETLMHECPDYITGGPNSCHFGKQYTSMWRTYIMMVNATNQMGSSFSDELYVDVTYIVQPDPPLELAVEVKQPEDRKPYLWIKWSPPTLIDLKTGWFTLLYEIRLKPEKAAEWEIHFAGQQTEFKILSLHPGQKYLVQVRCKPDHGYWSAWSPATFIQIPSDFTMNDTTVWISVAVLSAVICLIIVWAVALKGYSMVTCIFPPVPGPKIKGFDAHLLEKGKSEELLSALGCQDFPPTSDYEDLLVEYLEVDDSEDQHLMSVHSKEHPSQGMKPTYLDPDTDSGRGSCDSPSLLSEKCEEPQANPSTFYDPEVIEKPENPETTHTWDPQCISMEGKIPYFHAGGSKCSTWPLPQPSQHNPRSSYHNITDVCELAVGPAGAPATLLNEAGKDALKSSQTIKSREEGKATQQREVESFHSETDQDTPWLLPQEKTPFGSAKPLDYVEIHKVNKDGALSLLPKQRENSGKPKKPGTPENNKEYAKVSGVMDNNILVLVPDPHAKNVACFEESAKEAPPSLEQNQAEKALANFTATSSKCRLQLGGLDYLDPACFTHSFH

T3: HEK293/mPRLR (Mus musculus, UniProt Q08501)
T3 construct: HA; expressed in transfected cells; host or cells: HEK293
T3 sequence (Q08501 20-608): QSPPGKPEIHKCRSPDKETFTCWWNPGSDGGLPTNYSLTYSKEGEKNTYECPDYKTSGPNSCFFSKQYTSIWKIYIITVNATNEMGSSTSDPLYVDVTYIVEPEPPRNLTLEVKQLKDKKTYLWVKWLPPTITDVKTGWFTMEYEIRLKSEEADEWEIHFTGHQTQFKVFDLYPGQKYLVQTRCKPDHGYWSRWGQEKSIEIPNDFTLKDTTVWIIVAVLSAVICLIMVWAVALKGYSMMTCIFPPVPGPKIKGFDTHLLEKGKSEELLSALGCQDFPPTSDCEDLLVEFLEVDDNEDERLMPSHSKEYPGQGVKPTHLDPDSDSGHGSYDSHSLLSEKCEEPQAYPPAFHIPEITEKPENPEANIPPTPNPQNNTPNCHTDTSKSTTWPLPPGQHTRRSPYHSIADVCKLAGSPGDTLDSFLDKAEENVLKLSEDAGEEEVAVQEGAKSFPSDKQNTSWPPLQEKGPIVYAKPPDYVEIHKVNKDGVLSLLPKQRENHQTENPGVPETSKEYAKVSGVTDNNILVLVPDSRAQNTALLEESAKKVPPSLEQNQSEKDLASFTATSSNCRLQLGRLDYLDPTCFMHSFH


Columns and labels:
[1] = system: HEK293/hPRLR/STAT5-Luc cells (human PRLR); assay: STAT5-Luc luciferase reporter assay, blocking of PRL-mediated receptor activation; assay type: cell-based; settings: for IC50: 5 nM constant PRL, 6 hr at 37° C.; for Percent Blocking at 100 nM Antibody: 5 nM PRL
In short: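 Engineered HEK293 line stably carrying human PRLR and a STAT5-dependent luciferase reporter; antibodies (100 nM to 24 pM) incubated 6 hr at 37° C with 5 nM constant PRL, luminescence read. IC50 from four-parameter fit of 8-point curves; percent blocking at highest antibody dose; agonism without ligand also tested.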

[2] = system: HEK293 (non-expressing parental cells); assay: FACS cell surface binding
In short: (§1)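 HEK293 lines stably expressing HA-tagged human, cynomolgus or mouse PRLR, native-expressing T47D and parental HEK293 tested by flow cytometry. Cells (1×10^5) stained with primary antibody 30 min on ice, then PE anti-human secondary; MFI expressed as fold over isotype control.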

[3] = target: T1, T47D (native PRLR expressing cell line); assay: FACS cell surface binding
In short: as §1

HEK293/hPRLR = target: T2, HEK293/hPRLR; assay: FACS cell surface binding
In short: as §1

HEK293/mPRLR = target: T3, HEK293/mPRLR; assay: FACS cell surface binding
In short: as §1

HEK293/mfPRLR = assay: FACS cell surface binding; parameters: species or system macaca fascicularis
In short: as §1

HEK293/mfPRLR, sequence (as listed by the source): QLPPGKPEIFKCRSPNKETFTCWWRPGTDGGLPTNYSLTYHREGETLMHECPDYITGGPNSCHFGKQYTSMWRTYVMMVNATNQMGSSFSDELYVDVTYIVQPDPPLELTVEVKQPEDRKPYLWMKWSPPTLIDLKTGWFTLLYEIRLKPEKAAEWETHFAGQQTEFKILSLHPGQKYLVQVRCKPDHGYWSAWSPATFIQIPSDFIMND

| FACS Cell Binding (Fold Above Background) [3] [Fold Above Background] | FACS Cell Binding (Fold Above Background) (HEK293/hPRLR) | FACS Cell Binding (Fold Above Background) (HEK293/mPRLR) | Molecule | IC50 [1] [nM] | Percent Blocking at 100 nM Antibody [1] [%] | FACS Cell Binding (Fold Above Background) [2] [Fold Above Background] | FACS Cell Binding (Fold Above Background) (HEK293/mfPRLR) |
| --- | --- | --- | --- | --- | --- | --- | --- |
| 40 | 37 | 2 | H1H6953N: human IgG1 Fc form of H1M6953N; anti-PRLR; HCVR/LCVR SEQ ID NOs 274/282 (antibody, V domains shown, human IgG1 Fc) VH: EVQLLESGGGLVQPGGTLRLSCAASGFTFSAYAMSWVRQAPGKGLEWVSSINVRAGDTYYADSVKGRFTISRDNSKNTLFLLMNSLRAEDTAAYYCAKARYSSNWGFDFWGQGTLVTVSS VL: DIVMTQSPDSLTVSLGARTTINCQSSQTILHSSNNHNYLAWYQQKPGLPPKLLIYWSSTRESGVPDRFSGSGSGTDFTLTISSLQAEDVAIYYCQQYSNTPYTFGQGTKLEIN | 0.105 | 100 | 2 | 29 |
| 34 | 1 | 1 | H1H6804P: anti-PRLR antibody, human IgG1 Fc; HCVR/LCVR SEQ ID NOs 242/250 (antibody, V domains shown, human IgG1 Fc) VH: QVTLKESGPVLVKPTQTLSLTCTVSGFSLSDAGMGVSWIRQPPGKALEWLAHIFSNDGKSYSTSLKSRLTISKDTSKRQVVLTMTNMDPVDTATYYCARIRTGTYSLYLDYWGQGTLVTVSS VL: DIQMTQSPSSLSASVGDRVTITCRASQSINSYLNWYQQKPGKAPKLLLYFASSLQSGVPSRFSGSGSGTDFTLTISSLQPEDFASYYCQESYSTPWTFGQGTKVEIK | 7.89 | 100 | 1 | 29 |

Second part, the molecule before the results:

| Molecule | FACS Cell Binding (Fold Above Background) [3] [Fold Above Background] | FACS Cell Binding (Fold Above Background) (HEK293/hPRLR) | FACS Cell Binding (Fold Above Background) (HEK293/mPRLR) | IC50 [1] [nM] | Percent Blocking at 100 nM Antibody [1] [%] | FACS Cell Binding (Fold Above Background) [2] [Fold Above Background] | FACS Cell Binding (Fold Above Background) (HEK293/mfPRLR) |
| --- | --- | --- | --- | --- | --- | --- | --- |
| H1H6803P: anti-PRLR antibody, human IgG1 Fc; HCVR/LCVR SEQ ID NOs 226/234 (antibody, V domains shown, human IgG1 Fc) VH: EVQLVESGGGVVRPGGSLRLSCAASGFKFDDYGMTWVRHVPGKGLEWVSGINWNGGRTGYTDSVKGRFTISRDNAKNSLYLQMNSLRAEDTALYHCAGARRDAFDIWGQGTMVTVSS VL: DIQMTQSPSSLSASIGDRVTITCRASQNIIKYLNWYQQNAGKAPKLLIYTASSLQSGVPSRFSGSGSGTDFTLTISSLQPEDFATYYCQQSSSSPYTFGQGTKLEIK | 39 | 39 | 1 | 0.627 | 100 | 1 | 28 |
| H1H6800P: anti-PRLR antibody, human IgG1 Fc; HCVR/LCVR SEQ ID NOs 194/202 (antibody, V domains shown, human IgG1 Fc) VH: EVQLVESGGGLVQPGRSLRLSCAASGFTFDGYAMHWVRQGPGKGLEWVSGISWYSDTLGYADSVKGRFTISRDNAKNSLYLQMNSLRTEDTAFYYCAKISSSGWAFDYWGQGTLVTVSS VL: EIVLTQSPGTLSLSPGERATLSCRASHSVSSAYLAWYQQKPGQTPRLLIYGTSSRATGIPDRFSGSGSGTDFTLTISRLEPEDFAVYYCQQYGSSPLFTFGPGTKVDIK | 41 | 35 | 1 | 0.355 | 100 | 1 | 29 |
| H1H6801P: anti-PRLR antibody, human IgG1 Fc; HCVR/LCVR SEQ ID NOs 210/218 (antibody, V domains shown, human IgG1 Fc) VH: QVQLQQSGPGLVKPSQTLSLTCVISGDSVSSNTAWNWVRQSPSRGLEWLGRTYYRSKWYNDYAVSVKSRITINPDTSKNQFSLLMNSVTPEDTAVYYCARVVRGLNYFDYWGQGTLVTVSS VL: DIVMTQSPDSLAVSLGERATINCKSSQSVLYNSNNKNYLAWYQQKPGQPPKLLIYWSSSRESGVPDRFSGSGSGTDFTLTISGLQAEDVAIYYCQQYSTIPYTFGQGTKLEIK | 45 | 47 | 56 | 0.14 | 100 | 7 | 88 |
